These results are taken from patent US20120121603A1 (THERACLONE SCIENCES, published 2012).

This test concerns the target T1, M2 protein expressed on the surface of PR8-infected MDCK cells (Influenza A virus A/Puerto Rico/8/1932 …, UniProt P06821 1-97).
T1 construct: whole, on cells
As to the kind of experiment: FMAT, crude supernatant on PR8-infected MDCK cells.

T1 sequence (P06821 whole entry): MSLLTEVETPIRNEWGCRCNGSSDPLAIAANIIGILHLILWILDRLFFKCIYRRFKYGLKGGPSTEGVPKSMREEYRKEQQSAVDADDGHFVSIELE

B1: 23K12 (antibody, V domains shown)
VH: EVQLVESGGGLVQPGGSLRISCAASGFTVSSNYMSWVRQAPGKGLEWVSVIYSGGSTYYADSVKGRFSFSRDNSKNTVFLQMNSLRAEDTAVYYCARCLSRMRGYGLDVWGQGTTVTVS
VL: DIQMTQSPSSLSASVGDRVTITCRTSQSISSYLNWYQQKPGKAPKLLIYAASSLQSGVPSRFSGSGSGTDFTLTISGLQPEDFATYYCQQSYSMPAFGQGTKLEIK
As for B1, the binding result is listed as “binds”.
